One assay deals with human S100A6 (human, UniProt P06703 1-90). Kind of assay: fluorescence polarisation; displacement of the 5FAM probe peptide by increasing unlabeled peptide; 2.4-4.2 µM protein (monomer) with probe at the same concentration; 50 mM TES, 100 mM NaCl, 0.01% Tween-20, pH 7.4; KD,apparent corrected for the probe. As to conditions: both partners purified.
The next assay deals with T1, human S100A5 (human, UniProt P33763 1-92).
T1 sequence: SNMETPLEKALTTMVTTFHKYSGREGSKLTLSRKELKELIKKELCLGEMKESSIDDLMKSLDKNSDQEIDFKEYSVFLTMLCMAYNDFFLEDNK
The assay is described as above. The note with it: both partners purified.

Here are results for 3 molecules from paper PMC8136485, “Were Ancestral Proteins Less Specific?” (Molecular Biology and Evolution, 2021).

Primed or numbered codes have the meaning given here. Ends that are not written are not given here. 5FAM′ = 5-carboxyfluorescein

B1: unlabeled probe peptide GFDWRWGMEALTGGGSAE (peptide)
peptide: GFDWRWGMEALTGGGSAE
notes: the methods name only the nine test peptides and the probe as ordered from Genscript
Regarding B1, the Kd in the assay with human S100A6 was found to be 12.4 ± 2 µM; with human S100A5, 2.6 ± 2 µM.

B2: probe peptide 5FAM-GFDWRWGMEALTGGGSAE (peptide)
peptide: {5FAM′}-GFDWRWGMEALTGGGSAE
notes: also called fluorescently labeled probe peptide; source: synthetic peptide, bought: Genscript (95% purity)
Take B2: the binding result in the assay with human S100A6 and with human S100A5 was “binds” in each case.

B3: peptide SRQTTSTHEWVVGGGSAE (peptide)
chain: SRQTTSTHEWVVGGGSAE
modifications: synthetic unlabelled peptide with free N-terminus; C-terminal state not printed. The Methods print the full 18-mer (12-mer + GGGSAE flank, matching the stated library design); the Results form with …
B3: in the assay with human S100A5, the Kd is over 1000 µM.
